Test results reported in patent US20150037340A1 (PEIRRE FABRE MEDICAMENT, published 2015).

Tests used:
[1] = target: T1, recombinant mouse Axl-Fc (R and D systems, cat No 854-AX/CF) (mouse, UniProt Q00993 19-445); test: ELISA on coated rmAxl-Fc, detection with goat anti-mouse IgG-HRP
T1 construct: extracellular domain; Bought protein; also called rmAxl-Fc; murine Axl ECD domain; not shown: Fc portion (coating control with anti-human IgG Fc)
T1 sequence (looked up): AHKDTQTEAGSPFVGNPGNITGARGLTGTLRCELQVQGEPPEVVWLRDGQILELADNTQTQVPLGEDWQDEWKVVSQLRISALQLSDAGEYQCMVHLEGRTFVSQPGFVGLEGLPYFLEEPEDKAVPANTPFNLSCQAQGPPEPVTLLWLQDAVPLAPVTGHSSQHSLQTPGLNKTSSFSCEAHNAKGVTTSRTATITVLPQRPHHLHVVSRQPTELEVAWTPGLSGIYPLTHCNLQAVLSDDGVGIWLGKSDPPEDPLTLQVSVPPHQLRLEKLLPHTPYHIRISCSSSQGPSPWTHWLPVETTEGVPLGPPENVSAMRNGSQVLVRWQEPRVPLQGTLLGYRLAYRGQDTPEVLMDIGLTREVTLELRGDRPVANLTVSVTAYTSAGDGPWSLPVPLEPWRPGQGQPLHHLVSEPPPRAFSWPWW
Method: Briefly, the recombinant mouse Axl-Fc (R and D systems, cat No 854-AX/CF) proteins were coated overnight at 4° C. to Immulon II 96-well plates and, after a 1 h blocking step with a 0.5% gelatine solution, the 1613F12 purified antibody was added for one additional hour at 37° C. at starting concentration of 5 μg/m (3.33 10⁻⁸M). Then ½ serial dilutions were done over 12 columns. Plates were then washed and a goat anti-mouse (Jackson) specific IgG HRP was added for 1 h at 37° C. Reaction development was performed using the TMB substrate solution. […] Coating controls are performed in presence of a goat anti-human IgG Fc polyclonal serum coupled with HRP (Jackson, ref 109-035-098) and/or in presence of a HRP-coupled anti-Histidine antibody (R and D Systems, ref: MAB050H).

[2] = target: T2, human extracellular domain (ECD) of Axl, His-tagged (pCEP[AXL]His6, produced in HEK293E) (human, UniProt P30530 26-451); test: SPR (Biacore X), antibody captured on CM5 chip, Axl ECD as analyte, 1:1 Langmuir model
T2 construct: also called human Axl ECD; rhAxl ECD; not shown: His6 tag
T2 sequence: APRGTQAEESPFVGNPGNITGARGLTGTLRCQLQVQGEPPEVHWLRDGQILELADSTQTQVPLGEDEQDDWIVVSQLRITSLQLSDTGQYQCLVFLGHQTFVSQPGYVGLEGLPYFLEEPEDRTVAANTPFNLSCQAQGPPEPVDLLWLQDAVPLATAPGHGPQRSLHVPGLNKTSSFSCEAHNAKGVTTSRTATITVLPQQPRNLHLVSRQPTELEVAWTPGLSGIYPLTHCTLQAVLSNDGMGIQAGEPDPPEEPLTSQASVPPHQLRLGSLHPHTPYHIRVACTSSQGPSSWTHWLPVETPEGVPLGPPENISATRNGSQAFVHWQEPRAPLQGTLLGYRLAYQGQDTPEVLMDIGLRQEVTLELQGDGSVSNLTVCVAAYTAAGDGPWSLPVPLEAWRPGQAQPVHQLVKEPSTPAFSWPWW
Method: Briefly, the experiments were realized using a sensor chip CM5 as the biosensor. Rabbit IgGs were immobilized on the flow cells 1 and 2 (FC 1 and FC2) of a CM5 sensor chip at a level of 9300-10000 response units (RU) using amine coupling chemistry to capture antibodies.
Binding is evaluated using multiple cycles. Each cycle of measure is performed using a flow rate of 30 μl/imin in a HBS-EP buffer. Then the Axl antibody to test is captured on the chip for 1 min on FC2 only to reach a mean capture value of 311.8 RU (SD=5.1 RU) for the 1613F12. The analyte (Axl ECD antigen) is injected starting at 200 nM and using two-fold serial dilutions to measure rough ka and kd in real time.
At the end of each cycle, the surfaces are regenerated by injecting a 10 mM glycine hydrochloride pH1.5 solution to eliminate the antibody-antigen complexes and the capture antibody as well. The considered signal corresponds to the difference of the signals observed between FC1 and FC2 (FC2-FC1). Association rates (ka) and dissociation rates (kd) were calculated using a one-to-one Langmuir binding model. The equilibrium dissociation constant (KD) is determined as the […]. The experimental values were analyzed in the Biaevaluation software version 3.0. A χ2 analysis will be performed to assess the accuracy of the data.

B1: 1613F12 antibody (murine form) (antibody, V domains shown)
VH: EVHLQQSGAELVKPGASVKLSCTASGFNIRDTYIHWVKQRPEQGLEWIGRLDPANGHTKYGPNFQGRATMTSDTSSNTAYLQLSSLTSEDTAVYYCARGAYYYGSSGLFYFDYWGQGTTLSVSS
VL: DVQITQSPSYLATSPGETITINCRASKSISKYLAWYQEKPGKTNKLLIYSGSTLQSGVPSRFSGSGSGTDFTLTISSLEPEDFAMYFCQQHHEYPLTFGAGTELELK
notes: Whole murine monoclonal antibody purified from a hybridoma; a murine IgG1 (9G4) serves as its isotype control; also called m1613F12; monoclonal antibody 1613F12 derived from the hybridoma I-4505
- binding result [1]: no binding (tested: log -7.5 M)
- Kd [2]: 2.29 nM
- koff [2]: 0.000242 s⁻¹
- kon [2]: 106000 M⁻¹ s⁻¹
